The values that follow come from patent US20230265192A1 (GIGAGEN, published 2023).

The target of test [1] is T1, His-tagged human CTLA-4 (CT4-H5229; Acro Biosystems) (human, UniProt P16410 36-161).
T1 construct: bought soluble protein; also called soluble human CTLA-4; recombinant human CTLA-4; not shown: His tag
The test can be described thus: SPR (Carterra). Put shortly:
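mAb supernatants captured, at two densities, on an anti-human IgG Fc lawn. His-tagged human CTLA-4 injected at 1.95, 7.8, 31.25, 125 and 500 nM in HBS-EPC pH 7.4 with 1.0 mg/mL BSA, as a non-regenerative series with 5-min association and 15-min dissociation. Double-referenced data fitted for ka, kd and KD.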

Test [2] concerns the target T2, human CTLA-4 expressed on the cell surface (human, UniProt P16410 36-223). The test can be described thus: cell-based or functional assay.
For test [3], the target named is T3, His-tagged cynomolgus CTLA-4 (CT4-C5227; Acro Biosystems) (cynomolgus, UniProt G7PL88 36-161).
T3 construct: also called soluble cynomolgus CTLA-4; cyno CTLA-4
T3 sequence (G7PL88 entry or part of it limits assumed, form in doubt): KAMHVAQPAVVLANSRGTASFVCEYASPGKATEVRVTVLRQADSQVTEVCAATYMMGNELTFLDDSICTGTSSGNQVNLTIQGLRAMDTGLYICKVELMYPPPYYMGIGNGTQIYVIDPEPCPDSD
In words: BLI (Octet), single antigen concentration.

For test [4], the target named is T2, human CTLA-4 expressed on the cell …. The test can be described thus: flow cytometry, 10 µg/mL mAb, geometric MFI. In general terms: In flow cytometry, cells or beads pass a laser one at a time.
For test [5], the target named is T4, CD27 on CHO cells (UniProt P26842 20-260, limits assumed).
T4 construct: whole, on cells; also called CD27+ CHO cells; irrelevant antigen (CD27)
T4 sequence (P26842 20-260 limits assumed): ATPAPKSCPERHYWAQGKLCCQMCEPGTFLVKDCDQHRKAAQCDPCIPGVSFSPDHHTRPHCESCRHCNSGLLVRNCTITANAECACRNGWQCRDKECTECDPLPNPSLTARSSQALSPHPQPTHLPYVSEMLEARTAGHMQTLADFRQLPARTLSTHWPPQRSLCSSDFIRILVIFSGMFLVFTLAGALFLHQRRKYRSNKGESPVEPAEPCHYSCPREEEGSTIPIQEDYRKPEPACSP
In words: flow cytometry, 10 µg/mL mAb, geometric MFI.

Test [6] has as its target T4, CD27 on CHO cells. The test can be described thus: flow cytometry, mixed CTLA-4+ and CD27+ CHO cells. The method in brief: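 CHO cells stably expressing human CTLA-4 mixed with CD27-expressing CHO cells, then incubated with 10 μg/mL mAb for 30 min at 4 °C. Bound mAb detected with PE anti-human IgG Fc, CD27 cells gated by FITC anti-CD27; cells fixed in 4% paraformaldehyde before flow cytometry.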

T2 sequence (P16410 36-223 limits assumed): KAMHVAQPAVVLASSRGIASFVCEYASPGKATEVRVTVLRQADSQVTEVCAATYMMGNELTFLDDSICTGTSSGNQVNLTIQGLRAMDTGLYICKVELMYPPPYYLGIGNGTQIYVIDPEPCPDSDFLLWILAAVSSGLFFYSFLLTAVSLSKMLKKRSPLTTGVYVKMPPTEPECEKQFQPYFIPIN
T1 sequence (P16410 36-161 limits assumed): as the sequence (G7PL88 entry or part of it limits assumed, form in doubt) above, with N14S, T18I, M106L counted along it

B1: antibody A5 (L5H5) (antibody, V domains shown)
VH: QVQLVESGGGVVQPGRSLRLSCAASGFTFSSYGMHWVRQAPGKGLEWVAVIWYDGNNKYYADSVKGRFTISRDNSKNTLYLQMYSLRAEDTAVYYCARGGILAAGIFDYWGQGTLVTVSS
VL: EIVLTQSPGTLSLSPGDRATLSCRASQSGSSSYLAWYQQKPGQAPRLLIYGASSRATGIPDRFSGSGSGTDFTLTISRLEPEDFAVYYCQQYGTSPFTSGPGTKVDIK
notes: also called aCTLA-4.28; CTLA4.A5
As to B1, in test [1], the Kd (usually the constant that tells how readily two partners part at equilibrium) was 4.6 nM, the koff (commonly the first-order rate constant of dissociation) turned out to be 0.00042 s⁻¹ and the kon (commonly a measure of how fast the partners come together) worked out at 90000 M⁻¹ s⁻¹. In addition, in test [2], the “Promega assay % inhibition” value stood at 100% and the “Promega assay antagonist (EC50, ug/mL)” value was determined as 0.18 µg/mL. For the same molecule, binding in test [3] was characterised by a dissociation constant (Kd) of 2.2 nM. For the same molecule, the “MFI of CTLA-4+ CHO cells” value in test [4] worked out at 1030. Further, the “MFI of CD27+ CHO cells” value in the test with CD27 on CHO cells [5] came to 17.2. In the test with CD27 on CHO cells [6], the binding result is on record as “no binding (tested: 10 µg/mL)”.

B2: antibody A2 (L2H2) (antibody, V domains shown)
VH: QVQLVESGGGVVQPGRSLRLSCAASGFTFSNYGMNWVRQAPGKGLEWVAVIWYDGRNKHYADSVKGRFTISRDNSKNTLYLQMNSLRAEDTAVYYCARGGDWGPYFDYWGQGTLVTVSS
VL: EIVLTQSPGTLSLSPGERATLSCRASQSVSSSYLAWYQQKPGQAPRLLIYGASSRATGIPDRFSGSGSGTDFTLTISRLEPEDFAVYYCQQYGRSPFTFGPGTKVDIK
notes: also called aCTLA-4.4; CTLA4.A2
B2: in test [1], the Kd came out at 5.1 nM, the koff was 0.00052 s⁻¹ and the kon was determined as 100000 M⁻¹ s⁻¹. In addition, in test [2], the “Promega assay % inhibition” value was 75.4% and the “Promega assay antagonist (EC50, ug/mL)” value is 0.12 µg/mL. The molecule further registered a Kd in test [3] of 3.1 nM. In addition, the “MFI of CTLA-4+ CHO cells” value in test [4] amounted to 1120. Besides, the “MFI of CD27+ CHO cells” value in the test with CD27 on CHO cells [5] is 11.7. In addition, the binding result in the test with CD27 on CHO cells [6] was “no binding (tested: 10 µg/mL)”.

B3: antibody A7 (L7H7) (antibody, V domains shown)
VH: QVQLVESGGGVVQPGRSLRLSCAASGFTLSSFGMHWVRQAPGKGLEWVAVIWYDGSNKYYADSVKGRFIISRDNSKTALYLQMNSLRAEDTAVYYCARAHYFGAFDIWGQGTMVTVSS
VL: not shown
notes: also called aCTLA-4.3; CTLA4.A7
In test [1], B3 registered a Kd of 5.7 nM, a koff of 0.00036 s⁻¹ and a kon of 64000 M⁻¹ s⁻¹. In test [2], the “Promega assay % inhibition” value came to 11.5% and the “Promega assay antagonist (EC50, ug/mL)” value stood at 0.17 µg/mL. In addition, in test [3], the affinity, expressed as Kd, was 0.8 nM. Moreover, the “MFI of CTLA-4+ CHO cells” value in test [4] came out at 854. The “MFI of CD27+ CHO cells” value with CD27 on CHO cells [5] stood at 15.3. The binding result with CD27 on CHO cells [6] was “no binding (tested: 10 µg/mL)”.
